The record followed here is US7517654B2, “Peptide and a derivative thereof promoting cell adhesion and spreading” (Seoul National University Industry Foundation, priority 2004, dated 2009).

The test system of assay [1] is HOK-16B cells. Description: Cell adhesion assay on coated plates (crystal violet absorbance at 570 nm / cell counting). Type of assay: cell-based, human. Here is the method:
The cell adhesion assay was performed according to a method reported by Okazaki et al. (J. Biol. Chem., 277:37070, 2002). In detail, 24-well culture plates (Nunc, Roskilde, Denmark) were coated with various amounts of rLG proteins at 4° C. overnight. The peptides were also coated on plates by drying overnight. The substrate-coated on the plates were blocked by adding 1% heat-inactivated bovine serum albumin (BSA) in PBS for 1 h at 37° C. and washed twice with PBS. The cells in the Experimental Example 1, detached by 0.05% tyrpsin and 0.53 mM EDTA in PBS and resuspended in culture media, were added (1×10^5 cells/500 μl) to each plate and incubated for 1 h at 37° C. After incubation, unattached cells were removed by rinsing twice with PBS. The attached cells were fixed with 10% formalin in PBS for 15 min, rinsed twice with PBS, and stained with 0.5% crystal violet for 1 h. The plates were gently rinsed with DDW three times and lysed with 2% SDS for 5 min. Absorbance was measured at 570 nm in a Bio-Rad Model 550 microplate reader (BioRad).
The cell adhesion and spreading activities on peptide-coated plates were examined using HOK-16B cells by the same method as Experimental Example 2. 24-well plates were coated with 10, 20, 30, 40 and 50 μg/well peptides P1 to P5, respectively. HOK-16B cells were added to peptide-coated plates and cultured for 1 h in serum-free medium for 1 hr. After the unbound cells were washed off, adherent cells were fixed and stained with crystal violet, and then the stained cells were analyzed. Absorbance was measured at 570 nm in a microplate reader. BSA and the rLG3 were used as negative control and positive control, respectively.
It was observed that peptide P4 promotes strong cell adhesion and spreading activities and binds to integrin α3β1 in the Example 4. Therefore, to determine the biologically active core sequences in peptide P4, five synthetic peptides (P4 D-I to P4 D-V), which are C-terminal truncated peptides from the peptide P4, and six synthetic peptides (P4 D-N1 to P4 D-N6), which are N-terminal truncated peptides from the peptide P4 were prepared (FIG. 6A) and examined for HOK-16B cell adhesion and spreading activities on peptide-coated plates by the present inventors. 24-well plates were coated with 10 μg/well C-terminal truncated peptides or N-terminal truncated peptides, and HOK-16B cells were added to the plates, and then cultured in serum-free medium for 1 hr. After the unbound cells were washed off, the adherent cells were fixed to stain with crystal violet, and the stained cells were analyzed. Absorbance was measured at 570 nm in a microplate reader. Peptide P4 and BSA were used as the positive and negative controls, respectively.
24-well plates were coated with 10 μg/well peptides, and HOK-16B cells were added to the plates, and then cultured in serum-free medium for 1 hr. After the unbound cells were washed off, the adherent cells were fixed to stain with crystal violet, and the stained cells were analyzed. Peptide P4 and BSA were used as the positive and negative controls, respectively. The results were expressed as mean ±SD of the four independent experiments.

Assay [2] relates to HOK-16B cells. As to the kind of experiment: Cell spreading activity assay on coated plates. The following applies: spreading cells divided by total bound cells, coated plates. Type of assay: cell-based, human. Here is the method:
To identify spreading cells, attached cells were fixed with 10% formalin in PBS for 15 min, rinsed twice with PBS, and stained with 0.005% crystal violet for 1 h. The plates were then gently rinsed with DDW. To ensure a representative count, each plate was divided into quarters, two fields per quarter were photographed using an Olympus BX51 microscope at 100× magnification. Cells that had adopted a flattened, polygonal shape, with filopodia-and lamellipodia-like extensions were considered to be spreading cells. In contrast, cells that resisted being washed and remained tethered to the plate surface were considered to be non-spreading cells.
To examine the adhesion activity of peptide P4 in detail, the inventors examined whether the adherent cells were tethered to the substratum or spread over the substratum. The BSA and rLG3 were used as the negative control and positive control, respectively, the percentage of cells displaying a spreading morphology was quantified by dividing the number of spreading cells by the total number of bound cells.

PPFLMLLKGSTR [peptide P4]: the “coating concentration at which maximum cell adhesion was obtained” value with HOK-16B cells [1] (HOK-16B cells, peptide-coated 24-well plates) is given as at least 10 μg/well. Besides, the “cell adhesion activity of synthetic peptides” value with HOK-16B cells [1] (HOK-16B cells, plates coated with 10-50 μg/well peptide, 1 h, serum-free medium) is “strong dose-dependent cell adhesion activity”. In the assay with HOK-16B cells [2], the “HOK-16B cells displaying a spreading morphology” value was determined as 35%.

B1: rLG3: recombinant His6-tagged LG3 domain, residues 1128-1364 of human laminin α3 chain (protein, listed as Homo sapiens)
chain: VRLNDTVGVTKKCSEDWKLVRSASFSRGGQLSFTDLGLPPTDHLQASFGFQTFQPSGILLDHQTWTRNLQVTLEDGYIELSTSDSGGPIFKSPQTYMDGLLHYVSVISDNSGLRLLIDDQLLRNSKRLKHISSSRQSLRLGGSNFEGCISNVFVQRLSLSPEVLDLTSNSLKRDVSLGGCSLNKPPFLMLLKGSTRFNKTKTFRINQLLQDTPVASPRSVKVWQDACSPLPKTQANH
modifications: His6 tag
notes: recombinant His6-tagged LG3 domain, residues 1128-1364 of human laminin α3 chain
On to B1, for which the “reduction of the level of cell adhesion compared to the 5 μg/ml laminin-coated control” value with HOK-16B cells [1] (50 μg/ml rLG3 protein coating) is recorded as “approximately 45%”. The “cell adhesion activity of rLG proteins” value in the assay with HOK-16B cells [1] (HOK-16B cells on rLG protein-coated plates, 1 h, compared to BSA control) is given as “exhibited the adhesive activity”. The “coating concentration at which maximum adhesion occurs” value in the assay with HOK-16B cells [1] (HOK-16B cells, rLG protein-coated plates) is 25 µg/mL. For the same molecule, the “HOK-16B cells displaying a spreading morphology” value in the assay on HOK-16B cells [2] worked out at 47%.
